Laboratory results published in publication PMC8575462, “PP2A/B55α substrate recruitment as defined by the retinoblastoma-related protein p107” (eLife, 2021).

Experiments:
B55α = experiment: YFP pulldown, mass spectrometry; conditions: -log10 p-value est. 2.6; read off a plot
PP2A/A = experiment: YFP pulldown, mass spectrometry; conditions: -log10 p-value est. 2.2; read off a plot
Flag-pRB = Flag-pRB (UniProt P06400); experiment: co-immunoprecipitation (anti-Myc IP), western blot quantitation; conditions: 293T cells, co-transfected; parent: est. 1.0; read off a plot
[1] = biological target: purified PP2A/B55α holoenzyme (trimeric Flag-B55α/PP2A holoenzyme), P63151;P30153;P67775; experiment: peptide competition of GST-p107 R1R2 pull-down of purified PP2A/B55α, western blot quantified with ImageJ; conditions: lower B55α signal = peptide competes for B55α, read off a plot
[2] = biological target: T1, purified monomeric full-length B55α (M1-N447) (UniProt P63151 1-447); experiment: NMR titration; 2D [1H,15N] HSQC of 15N-labeled p107 (M612-S687) with and without unlabeled B55α mixed at 1:1 ratio; 283 K; 20 mM sodium phosphate pH 6.8, 250 or 50 mM NaCl, 0.5 mM TCEP; conditions: both partners purified
T1 construct: B55α M1-N447; also called B55α_(1-447); purified B55α; source: Expi293F, transfected, purified (GFP-nanobody beads, TEV cleavage, Mono Q); not shown: His6, N-terminal, cleaved; GFP, N-terminal, cleaved
T1 sequence (looked up): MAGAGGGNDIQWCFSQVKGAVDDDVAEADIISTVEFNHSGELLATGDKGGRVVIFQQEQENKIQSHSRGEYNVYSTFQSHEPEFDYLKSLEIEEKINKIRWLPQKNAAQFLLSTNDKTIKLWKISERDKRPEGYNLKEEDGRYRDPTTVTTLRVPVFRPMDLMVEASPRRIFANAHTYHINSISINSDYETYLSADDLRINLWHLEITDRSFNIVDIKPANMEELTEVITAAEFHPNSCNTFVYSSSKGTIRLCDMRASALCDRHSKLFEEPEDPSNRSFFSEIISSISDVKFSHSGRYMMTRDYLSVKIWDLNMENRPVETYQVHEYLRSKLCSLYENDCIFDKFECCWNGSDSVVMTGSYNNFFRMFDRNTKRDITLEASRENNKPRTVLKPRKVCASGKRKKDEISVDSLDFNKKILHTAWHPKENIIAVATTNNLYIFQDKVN

[3] = Peptides (at 300 µM), no-peptide control est. 0.68, parent: est. 0.08
[4] = peptide 120 µM, no-peptide control est. 0.68
[5] = peptide 240 µM, no-peptide control est. 0.68, parent: est. 0.07
[6] = Peptides (at 300 µM), no-peptide control est. 0.72, parent: est. 0.32
[7] = Peptides (at 300 µM), no-peptide control est. 0.68, parent: est. 0.09

Chain of Flag-pRB (P06400 whole entry): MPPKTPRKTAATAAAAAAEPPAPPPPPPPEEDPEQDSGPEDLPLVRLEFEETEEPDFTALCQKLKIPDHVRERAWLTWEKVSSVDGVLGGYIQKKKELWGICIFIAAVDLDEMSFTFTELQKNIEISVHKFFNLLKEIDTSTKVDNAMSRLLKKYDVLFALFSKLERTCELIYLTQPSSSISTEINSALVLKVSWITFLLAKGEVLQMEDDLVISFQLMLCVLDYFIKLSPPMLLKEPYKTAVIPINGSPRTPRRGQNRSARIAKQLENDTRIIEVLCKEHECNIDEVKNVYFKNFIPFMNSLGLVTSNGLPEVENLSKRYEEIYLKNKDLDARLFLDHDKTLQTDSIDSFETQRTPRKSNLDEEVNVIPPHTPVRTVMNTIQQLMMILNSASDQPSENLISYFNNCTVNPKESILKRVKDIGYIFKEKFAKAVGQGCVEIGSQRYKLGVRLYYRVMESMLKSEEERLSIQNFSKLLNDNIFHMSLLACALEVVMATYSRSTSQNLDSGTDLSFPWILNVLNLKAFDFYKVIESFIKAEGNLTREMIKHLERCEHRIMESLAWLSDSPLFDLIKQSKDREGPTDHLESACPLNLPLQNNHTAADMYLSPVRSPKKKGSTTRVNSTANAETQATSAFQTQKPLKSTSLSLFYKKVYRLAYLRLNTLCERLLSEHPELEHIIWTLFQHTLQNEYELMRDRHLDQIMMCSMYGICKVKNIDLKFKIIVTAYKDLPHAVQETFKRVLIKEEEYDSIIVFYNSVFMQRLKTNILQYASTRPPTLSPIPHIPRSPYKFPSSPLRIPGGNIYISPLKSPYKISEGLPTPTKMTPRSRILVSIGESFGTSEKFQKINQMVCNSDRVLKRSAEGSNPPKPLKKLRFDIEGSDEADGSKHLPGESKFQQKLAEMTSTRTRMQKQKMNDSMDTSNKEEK

Which results are given for “GFP-p107-R1 (four copies of R1) H619A; R621A; V622A; V625A”?
other: log2 ratio WT-Mut (B55α): 5.5; other: log2 ratio WT-Mut (PP2A/A): 3.2

“Myc-B55α wild type (from UniProt P63151) EEK-AAA” was tested. Which ratio to parent (Flag-pRB) did it give?
Its ratio to parent is 0.28.

“R1 peptide (synthetic p107 peptide encompassing the R1 region) E624A” was tested. Which response [1, 3] did it give?
The response was 0.02.

Which results are given for “R1 peptide (synthetic p107 peptide encompassing the R1 region) E624A; V625A; R626A”?
response [1, 4]: 0.56; response [1, 5]: 0.57

“R1 peptide (synthetic p107 peptide encompassing the R1 region) H619A” was tested. Which response [1, 6] did it give?
The response was 0.38.

For “R1 peptide (synthetic p107 peptide encompassing the R1 region) K623A”, which response [1, 6] is on record?
Its response is 0.03.

“R1 peptide (synthetic p107 peptide encompassing the R1 region) M618A” was tested. Which response [1, 3] did it give?
The response was 0.3.

For “R1 peptide (synthetic p107 peptide encompassing the R1 region) M618A; H619A; P620A”, which response [1, 4] is on record?
Its response is 0.43.

What about the response [1, 5] of the same molecule?
The response was 0.41.

Which response [1, 3] does the source give for “R1 peptide (synthetic p107 peptide encompassing the R1 region) P620A” here?
The response was 0.2.

With “R1 peptide (synthetic p107 peptide encompassing the R1 region) R621A” as the molecule, how does the response [1, 6] read?
Its response is 0.55.

What does the source list for “R1 peptide (synthetic p107 peptide encompassing the R1 region) R621A; V622A; K623A”?
response [1, 4]: 0.8; response [1, 5]: 0.92

For “R1 peptide (synthetic p107 peptide encompassing the R1 region) R626A”, which response [1, 6] is on record?
The response was 0.08.

With “R1 peptide (synthetic p107 peptide encompassing the R1 region) S615A; P616A; L617A” as the molecule, how does the response [1, 4] read?
The response was 0.25.

What about the response [1, 5] of the same molecule?
The response was 0.1.

Which response [1, 4] does the source give for “R1 peptide (synthetic p107 peptide encompassing the R1 region) T627A; D628A; S629A” here?
The response was 0.04.

What about the response [1, 5] of the same molecule?
Its response is 0.02.

Which response [1, 3] does the source give for “R1 peptide (synthetic p107 peptide encompassing the R1 region) V622A” here?
The response was 0.88.

Which response [1, 3] does the source give for “R1 peptide (synthetic p107 peptide encompassing the R1 region) V625A” here?
Its response is 0.98.

Which response [1, 7] does the source give for pS615-R1 phosphopeptide, wildtype H619A here?
Its response is 0.6.

Which response [1, 7] does the source give for pS615-R1 phosphopeptide, wildtype R621A here?
Its response is 0.82.

B1: p107 (M612-S687) (domain or fragment, UniProt P28749 612-687, looked up)
chain: MPMSPLMHPRVKEVRTDSGSLRRDMQPLSPISVHERYSSPTAGSAKRRLFGEDPPKEMLMDKIITEGTKLKIAPSS
modifications: 15N-labeled
notes: p107 residues M612-S687, which include R1, R2 and R3; also called p107_(612-687); source: E. coli BL21, purified (HisTrap, TEV cleavage, heating at 80°C, SEC); not shown: His6, N-terminal, cleaved; MBP, N-terminal, cleaved
Does B1 bind [2]?
Result: binds
